{"source": "patent US20100129369A1", "about": "(Eli Lilly, published 2010)", "binders": {"B1": {"name": "C8-6 (antibody, human IgG2, kappa, V domains shown)", "VH": "QVQLVQSGAEVKKPGASVKVSCKASGYTFTDYYMHWVRQAPGQGLEWMGRVNPNRGGTTYNQKFEGRVTMTTDTSTSTAYMELRSLRSDDTAVYYCARTNWLDYWGQGTTVTVSS", "VL": "DIQMTQSPSSLSASVGDRVTITCSVSSSVSSIYLHWYQQKPGKAPKLLIYSTSNLASGVPSRFSGSGSGTDFTLTISSLQPEDFATYYCIQYSGYPLTFGGGTKVEIKR", "notes": "Called IgG4, kappa; also called Mab C8-6"}}, "key": {"[1]": {"molecular_target": "T1, RON-ECD-Fc (human, UniProt Q04912 25-957)", "T1 construct": "extracellular domain; Bought reagent; not shown: Fc part of the bought fusion", "T1 sequence (looked up)": "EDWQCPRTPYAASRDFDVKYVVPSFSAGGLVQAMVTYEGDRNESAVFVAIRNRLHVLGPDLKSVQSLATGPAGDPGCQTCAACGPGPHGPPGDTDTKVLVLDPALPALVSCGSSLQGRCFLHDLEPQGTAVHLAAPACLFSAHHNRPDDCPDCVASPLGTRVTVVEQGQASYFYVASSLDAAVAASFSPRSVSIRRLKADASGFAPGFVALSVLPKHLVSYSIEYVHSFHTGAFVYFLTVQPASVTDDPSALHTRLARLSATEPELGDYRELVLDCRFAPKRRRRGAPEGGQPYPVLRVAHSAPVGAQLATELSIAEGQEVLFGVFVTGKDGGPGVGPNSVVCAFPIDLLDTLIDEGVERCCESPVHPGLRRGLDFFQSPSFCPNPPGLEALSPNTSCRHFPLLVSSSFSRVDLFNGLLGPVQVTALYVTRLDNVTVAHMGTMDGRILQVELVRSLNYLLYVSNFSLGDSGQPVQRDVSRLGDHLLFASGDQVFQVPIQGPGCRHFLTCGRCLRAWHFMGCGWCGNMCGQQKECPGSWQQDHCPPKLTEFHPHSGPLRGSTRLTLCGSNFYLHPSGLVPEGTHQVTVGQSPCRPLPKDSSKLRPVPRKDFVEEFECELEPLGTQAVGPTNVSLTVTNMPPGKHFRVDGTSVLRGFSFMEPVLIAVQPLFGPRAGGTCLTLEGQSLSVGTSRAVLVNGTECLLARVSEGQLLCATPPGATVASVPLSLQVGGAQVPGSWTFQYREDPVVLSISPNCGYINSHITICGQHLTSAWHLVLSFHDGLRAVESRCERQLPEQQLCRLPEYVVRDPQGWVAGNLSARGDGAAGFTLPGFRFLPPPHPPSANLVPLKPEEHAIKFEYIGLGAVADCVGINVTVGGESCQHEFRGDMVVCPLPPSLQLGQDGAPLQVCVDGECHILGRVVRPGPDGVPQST", "test": "ELISA, coated ECD-Fc, antibody 12.860 ng/mL"}, "[2]": {"molecular_target": "T2, PlexinA2-ECD-Fc (human, UniProt O75051 35-1237)", "T2 construct": "extracellular domain; Bought reagent", "T2 sequence (looked up)": "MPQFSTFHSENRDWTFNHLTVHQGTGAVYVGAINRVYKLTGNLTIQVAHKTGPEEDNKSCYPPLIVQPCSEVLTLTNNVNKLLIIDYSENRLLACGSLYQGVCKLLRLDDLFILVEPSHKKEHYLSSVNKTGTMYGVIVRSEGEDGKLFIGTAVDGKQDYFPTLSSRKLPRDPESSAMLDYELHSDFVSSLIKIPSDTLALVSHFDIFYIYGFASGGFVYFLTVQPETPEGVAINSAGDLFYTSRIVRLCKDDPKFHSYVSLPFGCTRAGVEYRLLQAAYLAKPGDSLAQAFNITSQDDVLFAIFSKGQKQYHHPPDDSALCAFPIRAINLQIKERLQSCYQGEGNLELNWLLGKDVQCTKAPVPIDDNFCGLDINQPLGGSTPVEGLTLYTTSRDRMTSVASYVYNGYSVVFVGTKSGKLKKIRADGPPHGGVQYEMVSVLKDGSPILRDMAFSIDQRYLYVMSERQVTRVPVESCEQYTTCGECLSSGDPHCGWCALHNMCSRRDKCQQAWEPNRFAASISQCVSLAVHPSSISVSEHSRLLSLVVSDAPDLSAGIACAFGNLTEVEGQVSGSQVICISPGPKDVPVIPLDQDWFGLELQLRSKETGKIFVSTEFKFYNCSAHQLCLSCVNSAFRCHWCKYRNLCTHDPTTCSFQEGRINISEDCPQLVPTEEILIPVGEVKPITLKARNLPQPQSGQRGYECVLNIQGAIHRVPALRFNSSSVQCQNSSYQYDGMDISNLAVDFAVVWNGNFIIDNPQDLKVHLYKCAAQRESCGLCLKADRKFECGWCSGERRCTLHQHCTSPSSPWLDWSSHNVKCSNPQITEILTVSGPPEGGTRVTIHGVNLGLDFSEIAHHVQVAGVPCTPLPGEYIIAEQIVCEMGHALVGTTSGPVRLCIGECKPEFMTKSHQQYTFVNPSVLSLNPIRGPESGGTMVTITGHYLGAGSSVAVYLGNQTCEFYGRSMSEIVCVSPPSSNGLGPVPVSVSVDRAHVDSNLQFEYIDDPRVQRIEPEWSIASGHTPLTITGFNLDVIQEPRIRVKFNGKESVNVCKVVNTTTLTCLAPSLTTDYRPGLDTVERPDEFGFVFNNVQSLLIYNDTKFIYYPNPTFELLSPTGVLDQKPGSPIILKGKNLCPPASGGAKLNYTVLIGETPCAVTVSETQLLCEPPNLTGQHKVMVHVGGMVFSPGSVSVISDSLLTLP", "test": "ELISA, coated ECD-Fc, antibody 0.357 ng/mL", "protocol": "(§1) Wells of 96-well EIA/RIA high binding plates (Costar, #2592) are coated with 100 μL of 1 μg/mL human c-Met extracellular domain (ECD)-Fc-Flis fusion (SEQ ID NO:72), RON-ECD-Fc (R&D Systems, #1947-MS), or PlexinA2-ECD-Fc (Abnova, Taipei, Taiwan #H00005362-P01) in coating buffer (BioFX Labs, # COAT-1000-01) overnight at 4° C. […] After the plates are washed, 100 μL/well of substrate solution (BioFx, #TMBW-1000-01) are added and the plates are incubated for 10 min. at room temperature. 100 μL/well of stop solution (BioFx, # LSTP-1000-01) are added to stop the reaction. The colorimetric signals are developed and read at 450 nm using a SpectraMax 190 plate reader (Molecular Devices, Sunnyvale, Calif.). c-Met antibody binding to c-Met, RON and PlexinA2 ECDs is proportional to color signal production."}, "[3]": {"molecular_target": "T1, RON-ECD-Fc", "test": "ELISA, coated ECD-Fc, antibody 0.357 ng/mL", "protocol": "as §1"}, "[4]": {"molecular_target": "T3, Human c-Met-Flis-Fc ECD (human)", "T3 construct": "also called human c-Met extracellular domain (ECD)-Fc-Flis fusion; Human cMet-ECD-Fc-Flis", "T3 sequence (chain, as listed by the source limits assumed)": "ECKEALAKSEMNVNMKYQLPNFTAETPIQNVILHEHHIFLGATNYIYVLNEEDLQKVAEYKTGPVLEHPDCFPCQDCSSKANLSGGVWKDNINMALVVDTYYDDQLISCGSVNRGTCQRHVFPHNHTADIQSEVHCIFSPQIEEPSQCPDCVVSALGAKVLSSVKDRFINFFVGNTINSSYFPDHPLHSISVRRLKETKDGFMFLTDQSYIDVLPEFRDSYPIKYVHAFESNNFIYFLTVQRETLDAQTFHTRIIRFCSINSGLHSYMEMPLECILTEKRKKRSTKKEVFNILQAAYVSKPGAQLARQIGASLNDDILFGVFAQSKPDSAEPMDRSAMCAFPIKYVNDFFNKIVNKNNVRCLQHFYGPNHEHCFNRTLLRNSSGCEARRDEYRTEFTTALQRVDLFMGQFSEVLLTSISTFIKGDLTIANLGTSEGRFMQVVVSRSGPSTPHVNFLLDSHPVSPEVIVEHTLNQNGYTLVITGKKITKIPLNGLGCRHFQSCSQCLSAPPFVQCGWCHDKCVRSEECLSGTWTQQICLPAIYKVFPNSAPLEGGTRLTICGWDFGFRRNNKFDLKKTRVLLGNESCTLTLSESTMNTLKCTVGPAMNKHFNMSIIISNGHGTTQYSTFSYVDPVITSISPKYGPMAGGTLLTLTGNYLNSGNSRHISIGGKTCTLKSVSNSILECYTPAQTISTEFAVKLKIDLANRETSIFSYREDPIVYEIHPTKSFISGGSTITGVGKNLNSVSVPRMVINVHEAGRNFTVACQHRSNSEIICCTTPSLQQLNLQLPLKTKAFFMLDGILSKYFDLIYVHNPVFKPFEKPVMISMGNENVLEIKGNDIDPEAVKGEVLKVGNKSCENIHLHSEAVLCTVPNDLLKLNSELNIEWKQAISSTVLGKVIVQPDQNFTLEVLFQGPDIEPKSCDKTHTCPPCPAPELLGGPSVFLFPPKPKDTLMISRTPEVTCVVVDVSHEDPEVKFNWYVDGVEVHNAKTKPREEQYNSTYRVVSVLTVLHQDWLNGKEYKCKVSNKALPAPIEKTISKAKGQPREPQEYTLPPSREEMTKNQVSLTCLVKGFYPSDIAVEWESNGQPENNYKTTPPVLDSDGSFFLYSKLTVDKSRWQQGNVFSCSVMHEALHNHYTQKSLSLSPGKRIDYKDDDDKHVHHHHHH", "test": "ELISA, coated ECD-Fc, antibody 0.357 ng/mL", "protocol": "as §1"}, "[5]": {"molecular_target": "T2, PlexinA2-ECD-Fc", "test": "ELISA, coated ECD-Fc, antibody 16666.667 ng/mL", "protocol": "as §1"}, "[6]": {"molecular_target": "T1, RON-ECD-Fc", "test": "ELISA, coated ECD-Fc, antibody 16666.667 ng/mL", "protocol": "as §1"}, "[7]": {"molecular_target": "T3, Human c-Met-Flis-Fc ECD", "test": "ELISA, coated ECD-Fc, antibody 16666.667 ng/mL", "protocol": "as §1"}}, "data": [{"binder": "B1", "values": [{"measurement": "Average A450 nm", "setting": "[1]", "value": 0.087, "unit": "A450 nm"}, {"measurement": "Average A450 nm", "setting": "[2]", "value": 0.107, "unit": "A450 nm"}, {"measurement": "Average A450 nm", "setting": "[3]", "value": 0.08, "unit": "A450 nm"}, {"measurement": "Average A450 nm", "setting": "[4]", "value": 0.813, "unit": "A450 nm"}, {"measurement": "Average A450 nm", "setting": "[5]", "value": 0.118, "unit": "A450 nm"}, {"measurement": "Average A450 nm", "setting": "[6]", "value": 0.124, "unit": "A450 nm"}, {"measurement": "Average A450 nm", "setting": "[7]", "value": 4, "unit": "A450 nm"}]}]}
